Experimental findings from publication PMC8683085, “Serine ADP-ribosylation marks nucleosomes for ALC1-dependent chromatin remodeling” (eLife, 2021) are described below.

The target in experiment [1] is PARP1 (full-length, N-terminal 6xHis-tag) (UniProt P09874).
Experiment [2] shares this target. The source holds these as a separate data set.
Experiment [3] addresses H2BS6ADPr1 nucleosome, P68431.

Sequence of PARP1 (full-length, N-terminal 6xHis-tag) (P09874 whole entry): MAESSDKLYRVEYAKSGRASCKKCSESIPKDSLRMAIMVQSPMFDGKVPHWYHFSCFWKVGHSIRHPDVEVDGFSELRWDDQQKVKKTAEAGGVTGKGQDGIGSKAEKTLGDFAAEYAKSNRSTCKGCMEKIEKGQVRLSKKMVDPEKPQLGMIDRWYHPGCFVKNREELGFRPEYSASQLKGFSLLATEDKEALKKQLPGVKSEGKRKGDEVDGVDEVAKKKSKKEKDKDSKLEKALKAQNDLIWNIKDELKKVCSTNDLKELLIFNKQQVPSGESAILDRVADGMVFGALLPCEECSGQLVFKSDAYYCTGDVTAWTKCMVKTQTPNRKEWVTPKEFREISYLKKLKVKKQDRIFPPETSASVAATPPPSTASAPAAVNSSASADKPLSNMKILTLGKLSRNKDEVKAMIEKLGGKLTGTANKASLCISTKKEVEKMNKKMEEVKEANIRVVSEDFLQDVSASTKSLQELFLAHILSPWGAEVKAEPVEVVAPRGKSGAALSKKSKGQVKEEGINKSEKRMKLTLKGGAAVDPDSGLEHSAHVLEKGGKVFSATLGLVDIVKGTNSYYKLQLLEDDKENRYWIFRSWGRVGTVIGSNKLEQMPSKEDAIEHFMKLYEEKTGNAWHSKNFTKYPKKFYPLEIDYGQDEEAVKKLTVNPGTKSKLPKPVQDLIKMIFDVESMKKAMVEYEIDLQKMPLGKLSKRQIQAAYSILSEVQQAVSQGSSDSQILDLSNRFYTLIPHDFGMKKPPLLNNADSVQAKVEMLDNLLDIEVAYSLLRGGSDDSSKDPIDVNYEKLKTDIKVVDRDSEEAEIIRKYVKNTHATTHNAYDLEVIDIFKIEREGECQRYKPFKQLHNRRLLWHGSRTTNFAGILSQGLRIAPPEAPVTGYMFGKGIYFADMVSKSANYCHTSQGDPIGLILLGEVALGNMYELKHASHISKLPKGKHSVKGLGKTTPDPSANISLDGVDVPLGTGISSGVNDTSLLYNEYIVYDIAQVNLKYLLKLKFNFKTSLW

B1: FLAG-HPF1 (amino acids 27-346) (natural protein)
chain: KFCEADVSSDLRKEVENHYKLSLPEDFYHFWKFCEELDPEKPSDSLSASLGLQLVGPYDILAGKHKTKKKSTGLNFNLHWRFYYDPPEFQTIIIGDNKTQYHMGYFRDSPDEFPVYVGINEAKKNCIIVPNGDNVFAAVKLFLTKKLREITDKKKINLLKNIDEKLTEAARELGYSLEQRTVKMKQRDKKVVTKTFHGAGLVVPVDKNDVGYRELPETDADLKRICKTIVEAASDEERLKAFAPIQEMMTFVQFANDECDYGMGLELGMDLFCYGSHYFHKVAGQLLPLAYNLLKRNLFAEIIEEHLANRSQENIDQLAA
Take B1: in experiment [1], the share of mono-ADP-ribosylated H3 (1-20) peptide among the products of the PARP1 ADPr reaction (RP-HPLC), HPF1 from 5 μM to 100 μM was found to be 94%. The same molecule had an inhibition of PARP1-catalyzed ADP-ribose polymerization from the H3S10ADPr1 peptide (RP-HPLC); HPF1 concentration at 50% inhibition in experiment [2] of 14 µM.

B2: ALC1 (full-length, 6xHis-1xFLAG-ALC1), Q86WJ1 1-897 (enzyme)
chain: MERAGATSRGGQAPGFLLRLHTEGRAEAARVQEQDLRQWGLTGIHLRSYQLEGVNWLAQRFHCQNGCILGDEMGLGKTCQTIALFIYLAGRLNDEGPFLILCPLSVLSNWKEEMQRFAPGLSCVTYAGDKEERACLQQDLKQESRFHVLLTTYEICLKDASFLKSFPWSVLVVDEAHRLKNQSSLLHKTLSEFSVVFSLLLTGTPIQNSLQELYSLLSFVEPDLFSKEEVGDFIQRYQDIEKESESASELHKLLQPFLLRRVKAEVATELPKKTEVVIYHGMSALQKKYYKAILMKDLDAFENETAKKVKLQNILSQLRKCVDHPYLFDGVEPEPFEVGDHLTEASGKLHLLDKLLAFLYSGGHRVLLFSQMTQMLDILQDYMDYRGYSYERVDGSVRGEERHLAIKNFGQQPIFVFLLSTRAGGVGMNLTAADTVIFVDSDFNPQNDLQAAARAHRIGQNKSVKVIRLIGRDTVEEIVYRKAASKLQLTNMIIEGGHFTLGAQKPAADADLQLSEILKFGLDKLLASEGSTMDEIDLESILGETKDGQWVSDALPAAEGGSRDQEEGKNHMYLFEGKDYSKEPSKEDRKSFEQLVNLQKTLLEKASQEGRSLRNKGSVLIPGLVEGSTKRKRVLSPEELEDRQKKRQEAAAKRRRLIEEKKRQKEEAEHKKKMAWWESNNYQSFCLPSEESEPEDLENGEESSAELDYQDPDATSLKYVSGDVTHPQAGAEDALIVHCVDDSGHWGRGGLFTALEKRSAEPRKIYELAGKMKDLSLGGVLLFPVDDKESRNKGQDLLALIVAQHRDRSNVLSGIKMAALEEGLKKIFLAAKKKKASVHLPRIGHATKGFNWYGTERLIRKHLAARGIPTYIYYFPRSKSAVLHSQSSSSSSRQLVP
modifications: here or on the partner: mono-ADP-ribose on S6
For B2, in experiment [3], the ALC1 nucleosome remodeling rate constant (REA assay) is < 0.0003 min⁻¹.
